The experiment concerns the target HLA-A*02:01. The experiment can be described thus: IEDB peptide-MHC binding, purified MHC/competitive/radioactivity; ≥ and ≤ were set here for values at or beyond the usual limits of such assays. The conditions noted are these: source organism: Trypanosoma cruzi.

The source of these data is the Immune Epitope Database (IEDB).

As a reminder, the pIC50 is −log10 of the IC50, conventionally taken in molar units.

pIC50: −log10 of the molar value.

IANYNFTLV: the pIC50 was 4.53.
In the case of RVSRPTTVV it was 5.60; in that of LLGLWGLATA, 7.62; in that of FVNHRFTLV, 6.52.
In the case of ELLRPTTLV it was 5.62; in that of FLSHNFTLVF, 9.21; in that of FANYNFTLL, 5.82.
The same measure for FANNKFTLV: 6.94.
FVNYNFTLV: the pIC50 was 9.60.
In the case of FLSHDFTLV it was 9.34.
Take GLLPSLLLLL: the negative logarithm of the IC50 (pIC50) is 8.51.
In the case of FVSCDFTIV it was 7.52; in that of RLLPSLLLLL, 9.10.
Turning to FANYKFTLV, the pIC50 was 7.31.
Turning to FANYNFTLV, the pIC50 was 9.33.
Regarding FANHDFTLV, the pIC50 was 7.00.
The same measure for SLSHYFTLVF: 8.80; for FVDYNFSLV: 8.96.
